Reference: US20140303084
Numbering of substitutions follows the chain as printed.

Assays:
[1] = system: T1, C(Acm)GGGGfpipR-PEG5-rRAPGKLTCLASYCWLFWTGIA
T1 sequence: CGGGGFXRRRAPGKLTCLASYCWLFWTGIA

[2] = system: T2, C(N-PEG5kmaleimide)-PEG4-LVPR-PEG4-rRAPGKLTCLASYCWLFWTGIA
T2 sequence: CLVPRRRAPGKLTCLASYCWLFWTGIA

[3] = system: T3, CGGGLVPRGGG-RRAPGKLT-Asp-LASY-Lys-WLFWTGIA
T3 sequence: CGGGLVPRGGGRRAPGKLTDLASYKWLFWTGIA

[4] = system: T4, CGGSGGRRAPGKLQCLASYCWLFWTGIAC
T4 sequence: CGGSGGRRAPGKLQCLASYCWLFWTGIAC

ERYRLDMTCMASQCWQFPPAAG = system: T5, ERYRLDMTCMASQCWQFPPAAG
T5 sequence: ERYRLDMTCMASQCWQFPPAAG

GDSGRKLSCLGSYCWLSVQFMA = system: T6, GDSGRKLSCLGSYCWLSVQFMA
T6 sequence: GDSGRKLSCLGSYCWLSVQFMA

GVEDRQLTCLASSCWVFSRHSV = system: T7, GVEDRQLTCLASSCWVFSRHSV
T7 sequence: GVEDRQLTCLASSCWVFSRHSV

KKLTCLASYCWLF = system: T8, KKLTCLASYCWLF
T8 sequence: KKLTCLASYCWLF

KLT-Dap-LASY-Glu-WLF = system: T9, KLT-Dap-LASY-Glu-WLF
T9 sequence: KLTXLASYEWLF

KLTALASYAWLF = system: T10, KLTALASYAWLF
T10 sequence: KLTALASYAWLF

KLTCLASYCQLV = system: T11, KLTCLASYCQLV
T11 sequence: KLTCLASYCQLV

KLTCLASYCW-MeLeu-F = system: T12, KLTCLASYCW-MeLeu-F
T12 sequence: KLTCLASYCWLF

KLTCLASYCWIF = system: T13, KLTCLASYCWIF
T13 sequence: KLTCLASYCWIF

KLTCLKSYCWLF = system: T14, KLTCLKSYCWLF
T14 sequence: KLTCLKSYCWLF

KLTCLSSYCWLF = system: T15, KLTCLSSYCWLF
T15 sequence: KLTCLSSYCWLF

KLTCRASYCQLF = system: T16, KLTCRASYCQLF
T16 sequence: KLTCRASYCQLF

KRAPGKLQCLASYCWLFWTGIA = system: T17, KRAPGKLQCLASYCWLFWTGIA
T17 sequence: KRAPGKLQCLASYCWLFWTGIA

[5] = system: T18, PEG16-Lys(PEG2-Biotin)-PEG16-rRAPGKLTCLASYCWLFWTGIA
T18 sequence: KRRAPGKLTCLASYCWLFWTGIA

[6] = system: T19, PRIRTVGPGSRSASGKLTCLASYCWLFWTSIA
T19 sequence: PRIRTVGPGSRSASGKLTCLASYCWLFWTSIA

[7] = system: T20, PRIRTVGPGSRSASGKLTCLASYCWLLWTGIA
T20 sequence: T19 sequence with F27L, S30G

QQRQIKMSCLASYCWLFGSIPW = system: T21, QQRQIKMSCLASYCWLFGSIPW
T21 sequence: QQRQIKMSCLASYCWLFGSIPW

[8] = system: T22, R-MeArg-APGKLTCLASYCWLFWTGIA
T22 sequence: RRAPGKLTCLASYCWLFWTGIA

[9] = system: T23, RK(PEG2-Biotin)APGKLTCLASYCWLFWTGIA
T23 sequence: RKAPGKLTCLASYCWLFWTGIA

[10] = system: T24, RR-MeAla-PGKLTCLASYCWLFWTGIA
T24 sequence: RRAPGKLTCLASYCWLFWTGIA

[11] = system: T25, RRAK(PEG2-Biotin)GKLTCLASYCWLFWTGIA
T25 sequence: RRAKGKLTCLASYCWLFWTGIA

[12] = system: T26, RRAPGCLTALASYCWLFWTGIA-CONH2
T26 sequence: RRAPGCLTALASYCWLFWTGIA

[13] = system: T27, RRAPGK-MeLeu-TCLASYCWLFWTGIA
T27 sequence: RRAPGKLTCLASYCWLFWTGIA

[14] = system: T28, RRAPGKCTALASYCWLFWTGIA-CONH2
T28 sequence: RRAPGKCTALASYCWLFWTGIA

[15] = system: T29, RRAPGKCTALASYCWLFWTGIA-COOH
T29 sequence: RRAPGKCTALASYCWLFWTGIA

[16] = system: T30, RRAPGKLQCLASYCWLFWTG-Cha-A
T30 sequence: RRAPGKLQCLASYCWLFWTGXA

RRAPGKLQCLASYCWLFWTGAA = system: T31, RRAPGKLQCLASYCWLFWTGAA
T31 sequence: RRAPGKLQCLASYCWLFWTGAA

RRAPGKLQCLASYCWLFWTGIK = system: T32, RRAPGKLQCLASYCWLFWTGIK
T32 sequence: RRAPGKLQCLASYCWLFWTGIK

[17] = system: T33, RRAPGKLT-Asp-LASY-Dab-WLFWTGIA-CONH2
T33 sequence: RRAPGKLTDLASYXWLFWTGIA

[18] = system: T34, RRAPGKLT-Asp-LASY-Dap-WLFWTGIA-COOH
T34 sequence: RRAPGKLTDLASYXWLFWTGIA

[19] = system: T35, RRAPGKLTC-MeLeu-ASYCWLFWTGIA
T35 sequence: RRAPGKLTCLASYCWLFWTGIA

[20] = system: T36, RRAPGKLTCLA-MeSer-YCWLFWTGIA
T36 sequence: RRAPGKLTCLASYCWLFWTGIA

[21] = system: T37, RRAPGKLTCLASYCWL-MePhe-WTGIA
T37 sequence: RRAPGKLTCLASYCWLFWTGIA

[22] = system: T38, RRAPGKLTCLASYCWLF STGVA THANTTATAQ
T38 sequence: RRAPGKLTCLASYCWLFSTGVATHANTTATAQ

[23] = system: T39, RRAPGKLTCLASYCWLF VTGTA HAPRVAPAPA
T39 sequence: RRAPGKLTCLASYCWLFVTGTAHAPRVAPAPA

[24] = system: T40, RRAPGKLTCLASYCWLFWTGK(PEG2-Biotin)A
T40 sequence: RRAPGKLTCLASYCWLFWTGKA

RRAPGKLTCLASYCWLFWtGIA [25] = system: T41, RRAPGKLTCLASYCWLFWtGIA
T41 sequence: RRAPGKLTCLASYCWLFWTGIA

RRAPGKLTClASYCWLFWTGIA [26] = system: T42, RRAPGKLTClASYCWLFWTGIA
T42 sequence: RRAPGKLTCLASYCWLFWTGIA

RRAPKKLQCLASYCWLFWTGIA = system: T43, RRAPKKLQCLASYCWLFWTGIA
T43 sequence: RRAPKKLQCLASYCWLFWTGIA

[27] = system: T44, SAQGRPISPDrRAAGKLTCLASYCWLFWTGIA
T44 sequence: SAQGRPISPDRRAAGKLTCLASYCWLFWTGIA

compound 3 = system: T45, compound 3
T45 sequence: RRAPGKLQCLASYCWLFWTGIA

rRAAGKATCLASACW LAATGIA = system: T46, rRAAGKATCLASACW LAATGIA
T46 sequence: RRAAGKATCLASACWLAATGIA

rRAAGKLTCLASYCWLAATGIA = system: T47, rRAAGKLTCLASYCWLAATGIA
T47 sequence: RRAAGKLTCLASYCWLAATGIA

rRAPGKLTCLASYCWLFSTGIA = system: T48, rRAPGKLTCLASYCWLFSTGIA
T48 sequence: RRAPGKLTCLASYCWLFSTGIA

[28] = system: T49, rRAPGKLTCLASYCWLFWTGIA-COOH
T49 sequence: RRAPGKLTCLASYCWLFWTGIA

[29] = system: T50, rRAPGKLTCLASYCWLFWTGIA-PEG16-Lys(PEG2-Biotin)-PEG16
T50 sequence: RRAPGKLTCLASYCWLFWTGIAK

With human Factor IXa the Vmax, FXa generation assay [1] was greater than 3, the “Vmax, FXa generation assay; (++) means 1-2” value (shortened to “Vmax … (++) means 1-2”) [2] was “(++)” and the Vmax, FXa generation assay [3] was greater than 2. For the same substance, the “Vmax … (++) means 1-2” value [4] was “(++)”, the “Vmax … (++) means 1-2” value (ERYRLDMTCMASQCWQFPPAAG) was “(++)” and the “Vmax … (++) means 1-2” value (GDSGRKLSCLGSYCWLSVQFMA) was “(++)”. The “Vmax … (++) means 1-2” value (GVEDRQLTCLASSCWVFSRHSV) was “(++)”, the Vmax, FXa generation assay (KKLTCLASYCWLF) was greater than 3 and the “Vmax … (++) means 1-2” value (KLT-Dap-LASY-Glu-WLF) was “(++)”. For the same substance, the Vmax, FXa generation assay (KLTALASYAWLF) was greater than 2, the Vmax, FXa generation assay (KLTCLASYCQLV) was greater than 2 and the Vmax, FXa generation assay (KLTCLASYCW-MeLeu-F) was greater than 2. For the same substance, the Vmax, FXa generation assay (KLTCLASYCWIF) was greater than 2, the “Vmax … (++) means 1-2” value (KLTCLKSYCWLF) was “(++)” and the Vmax, FXa generation assay (KLTCLSSYCWLF) was greater than 2. For the same substance, the Vmax, FXa generation assay (KLTCRASYCQLF) was greater than 2, the Vmax, FXa generation assay (KRAPGKLQCLASYCWLFWTGIA) was greater than 2 and the Vmax, FXa generation assay [5] was greater than 3. The Vmax, FXa generation assay [6] was greater than 3, the Vmax, FXa generation assay [7] was greater than 3 and the “Vmax … (++) means 1-2” value (QQRQIKMSCLASYCWLFGSIPW) was “(++)”. The “Vmax … (++) means 1-2” value [8] was “(++)”, the “Vmax … (++) means 1-2” value [9] was “(++)” and the Vmax, FXa generation assay [10] was greater than 3. The “Vmax … (++) means 1-2” value [11] was “(++)”, the “Vmax … (++) means 1-2” value [12] was “(++)” and the “Vmax … (++) means 1-2” value [13] was “(++)”. For the same substance, the Vmax, FXa generation assay [14] was greater than 2, the “Vmax … (++) means 1-2” value [15] was “(++)” and the Vmax, FXa generation assay [16] was greater than 3. For the same substance, the Vmax, FXa generation assay (RRAPGKLQCLASYCWLFWTGAA) was greater than 3, the “Vmax … (++) means 1-2” value (RRAPGKLQCLASYCWLFWTGIK) was “(++)” and the “Vmax … (++) means 1-2” value [17] was “(++)”. For the same substance, the “Vmax … (++) means 1-2” value [18] was “(++)”, the “Vmax … (++) means 1-2” value [19] was “(++)” and the “Vmax … (++) means 1-2” value [20] was “(++)”. For the same substance, the Vmax, FXa generation assay [21] was greater than 2, the Vmax, FXa generation assay [22] was greater than 3 and the Vmax, FXa generation assay [23] was greater than 3. The “Vmax … (++) means 1-2” value [24] was “(++)”, the “Vmax … (++) means 1-2” value (RRAPGKLTCLASYCWLFWtGIA [25]) was “(++)” and the “Vmax … (++) means 1-2” value (RRAPGKLTClASYCWLFWTGIA [26]) was “(++)”. For the same substance, the “Vmax … (++) means 1-2” value (RRAPKKLQCLASYCWLFWTGIA) was “(++)”, the Vmax, FXa generation assay [27] was greater than 2 and the KM (nM) of hFIXa for FX (compound 3) was 16 nM. For the same substance, the Vmax (mOD/min min), with phospholipids (compound 3) was 3.9 mOD/min min, the Vmax (mOD/min min), without phospholipids (compound 3) was 2.77 mOD/min min and the Vmax, FXa generation assay with hFIXa (compound 3) was greater than 3. It also gave a kcat (min^-1) of hFIXa for FX, compound at 1 µM (compound 3) of 0.0177 min⁻¹, a Δ KM (Km compound/Km buffer) (compound 3) of 0.21 and a Vmax, FXa generation assay (rRAAGKATCLASACW LAATGIA) greater than 3. The Vmax, FXa generation assay (rRAAGKLTCLASYCWLAATGIA) was greater than 0.8, the “Vmax … (++) means 1-2” value (rRAPGKLTCLASYCWLFSTGIA) was “(++)” and the Vmax, FXa generation assay [28] was greater than 2. The Vmax, FXa generation assay [29] was greater than 3.
